Reference: patent US20030148460

Tests used:
[1] = test system: cathepsin D
[2] = target: uteroferrin (UniProt P09889)
[3] = test system: RNAse B

UniProt P09889, sequence (P09889 22-340): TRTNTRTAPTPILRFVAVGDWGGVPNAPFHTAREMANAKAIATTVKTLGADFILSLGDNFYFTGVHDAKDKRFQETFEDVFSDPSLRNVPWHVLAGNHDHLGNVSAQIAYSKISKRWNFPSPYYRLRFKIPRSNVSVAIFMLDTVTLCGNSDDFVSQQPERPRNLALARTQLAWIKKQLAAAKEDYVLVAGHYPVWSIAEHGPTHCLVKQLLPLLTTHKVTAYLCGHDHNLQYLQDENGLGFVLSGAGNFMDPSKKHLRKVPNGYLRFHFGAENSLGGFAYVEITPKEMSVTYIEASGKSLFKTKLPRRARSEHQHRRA

In the case of “bovine GlcNAc-phosphotransferase (UDP-N-acetylglucosamine: lysosomal enzyme N-Acetylglucosamine-1-phosphotransferase)”, the “Km as acceptor for transfer of GlcNAc-1-P” value (“Km … of GlcNAc-1-P” for short) [1] is reported as “Both uteroferrin and cathepsin D are effectively utilized as acceptors by purified GlcNAc-phosphotransferase with Kms below 20 µM”, the “Km … of GlcNAc-1-P” value [2] is reported as “Both uteroferrin and cathepsin D are effectively utilized as acceptors by purified GlcNAc-phosphotransferase with Kms below 20 µM” and the “Km … of GlcNAc-1-P” value [3] is reported as “the Km was not reached at the solubility limit of the protein (at 600 µM)”.
